Data taken from patent publication US20200147199A1 (ROCKEFELLER UNIVERSITY, published 2020).

Key:
[1] = target: DENV3 EDIII, polyhistidine-AviTag (DENV3); experiment: cross-reactivity ELISA
[2] = target: DENV1 E protein (strain PUO-359) on RVPs or on virus (DENV1, strain PUO-359); experiment: cell-based or functional assay
[3] = target: ZIKV E protein (2015 Puerto Rican PRVABC59 strain) on virus (ZIKV, strain PRVABC59); experiment: cell-based or functional assay
[4] = target: T1, ZIKV E Domain III ([..]), polyhistidine-AviTag, produced in HEK-293-6E cells (ZIKV); experiment: ELISA on coated ZIKV EDIII
T1 construct: also called ZEDIII; ZIKV EDIII

[5] = target: T2, DENV1 EDIII, polyhistidine-AviTag, produced in HEK-293-6E cells (DENV1); experiment: cross-reactivity ELISA
T2 construct: also called EDIII of DENV1
T2 sequence (P17763 577-674, tags left off): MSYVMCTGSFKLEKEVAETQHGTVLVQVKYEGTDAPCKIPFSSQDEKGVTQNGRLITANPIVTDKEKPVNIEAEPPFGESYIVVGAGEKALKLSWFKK

Row | Binder | binding result [1] | EC50 [4] | further results
1 | Z004 (MEX18_89) (antibody, V domains shown, also called biotin-Z004 (biotinylated form)) VH: EVQLLESGGGLVQPGGSLRLTCATSGFTFRDYAMSWVRQAPGKGLEWVSSYSGIDDSTYYADSVKGRFTISRDNSKSTLSLHMNSLRAEDSALYFCAKDRGPRGVGELFDSWGQGTLVTVSS VL: DIQMTQSPSTLSASVGDRVTITCRASQSISKWLAWYQQKPGKAPKLLIYTTSTLKSGVPSRFSGSGSGTEFTLTISSLQPDDFATYYCQHFYSVPWTFGQGTKVEIK | no binding (tested: 10 µg/ml) |  | IC50, DENV1 luciferase RVPs [2]: 0.0016 µg/mL; IC50, flow cytometry with authentic DENV1 [2]: 0.0164 µg/mL; IC50, plaque reduction neutralization test (PRNT) [3]: 0.0022 µg/mL
2 | Z021 (MEX84_p4-23) (antibody, V domains shown) VH: QVQLQESGPGLVKPSETLSLTCTVSGGSIDTYYWSWIRQTPGKGLEWIGCFYYSVDNHFNPSLESRVTISVDTSKNQFSLKMTSMTASDTAVYYCARNQPGGRAFDYWGPGTLVTVSS VL: EIVLTQSPATLSLSPGQRATLSCRASQSVSNYFAWYQQKPGQAPRLLIYDTSKRATGTPARFSGSGSGTDFTLTISSLEPEDFAVYYCQERNNWPLTWTFGLGTKVEIK |  |  | IC50, DENV1 neutralization (flow cytometry) [2]: 0.0101 µg/mL; IC50, plaque reduction neutralization (PRNT) [3]: 0.004 µg/mL
3 | Z032 (BRA112_24) (antibody, V domains shown) VH: EVQLLESGGRLVQPGGSLTLSCAASGFPFSTYAMSWLRQAPGKGLEWVSGITGDSGSTYYAASVKGRFTISRDNSKNTLYLQMNSLTADDTAVYYCAKDRLHSGLGELFSYWGQGTLVTVSS VL: DIQMTQSPSTLSASVGDRVNITCRASQSINQWLAWYQQKPGKAPKFLMYKASTLETGVPSRFSGSGSGTEFTLTISSLQPDDFATYYCQHYFSYPWTFGQGTKVEIK |  | 0.0195 µg/mL | 
4 | Z040 (BRA12_81) (antibody, V domains shown) VH: EVQLLESGGGLVQPGGSLRLSCAASGFTFSTYAMSWVRQAPGKGLEWVSAISGSGRSTYYADSVKGRFTISRDNSKNTLYLQMNSLRGEDTAVYYCAKSSGGHNWNYVDYYYGMDVWGQGTTVTVSS VL: DIQLTQSPSFLSASVGDRVTITCRASQGISSYLAWYQQKPGKAPKLLIYAASTLQSGVPSRFSGSGSGTEFTLTISSLQPEDFATYYCQQLNSYPVTFGPGTKVDIK |  | > 10 µg/mL | binding result [5]: no binding (tested: 10 µg/ml)
5 | Z044 (BRA138_46) (antibody, V domains shown) VH: QVQLVQSGAEVKKPGASVKVSCKASGYTFTSTYIHWVRQAPGQGLEWMGIINPSSSNTNYAQKFQGRVTMTRDTSTSTVYMELSSLRSEDTAVYYCARDFGGYSSSSVSDAFDIWGQGTMVTVSS VL: QSALTQPASVSGSPGQSITISCTGTSSDVGSFNLVSWYQQHPGKAPKLIIYEVSKRPSGVSNRFSGSKSGNTASLTISGLQAEDEVHYYCCSYAGSSRFVFGTGTKVTVL |  | > 10 µg/mL | binding result [5]: no binding (tested: 10 µg/ml)
6 | Z054 (BRA138_94) (antibody, V domains shown) VH: QLQLQESGPRLVKPSETLFLTCTVSGDSISSSSYFWGWIRQPPGKGLEWIGSISYSGSTYYNPSLKSRVTISVDTSKNQFSLKLSSVTAADTVVYYCAKHLYSSSWNIGSSFDSWGPGTLVTVSS VL: EIVLTQSPATLSLSPGERATLSCRASQSVSIYLAWYQQKPGQAPRLLIYDASSRATGIPARFSGSGSGTDFTLTISSLEPEDFAVYYCQQRSNWPVYTFGQGTKVEIK |  | > 10 µg/mL | binding result [5]: no binding (tested: 10 µg/ml)
7 | Z028 (MEX84_p4-53) (antibody, V domains shown) VH: EVQLLESGGGLVQPGGSLRLSCAASGFTFSAYAMSWVRQAPGKGLEWVSSINGHSDSTYFADSVKGRFTISRDNSKNTLYLQMNSLRAEDTALYYCAKDRLREGIGELFHSWGQGTLVTVSS VL: DIQMTQSPSTLSASIGDRVTITCRASQSITPWLAWYQQKPGKAPKFLIYQTSILESGVPSRFSGSGSGTEFTLTISSLQPDDFATYYCQHYHSYPWTFGQGTKVEIK | no binding (tested: 10 µg/ml) |  | 
8 | Z001 (MEX18_21) (antibody, V domains shown) VH: EVQLLESGGGLVQPGGSRRLSCATSGFSFDTYAMSWLRQAPGKGLEWVSSFSGLDDSTYYADSVKGRFTISRDNSKNTLYLQMNSLRAEDTAIYYCAKDRGPRGIGELFDFWGQGTLVTVSS VL: DIQMTQSPSTLSASVGDRVTITCRASQSISRWLAWYQQKPGKAPKLLIYKTSTLKSEVPSRFSGSGSGTEFTLTISSLQPDDFATYYCQHFHSVPWTFGQGTKVEIK | no binding (tested: 10 µg/ml) |  | 
9 | Z006 (MEX105_42) (antibody, V domains shown) VH: EVQLLESGGGLVQPGGSLRLSCAASGFTFKNYAMAWVRQAPGKGLEWVSLLYNSEESTYYADSVKGRFTISRDNSKNTLFLQMNRLRVEDTAVYFCVRDRSNGWSSINLWGRGTLVTVSS VL: DIQMTQSPSTLSASVGDRVTMTCRASQTISGWLAWYQQKPGKAPKLLIYQASRLESGIPSRFSGSGSGTEFTLTISSLQPDDVATYYCQQYSTFWTFGLGTKVEIK | no binding (tested: 10 µg/ml) |  | 
10 | Z010 (MEX105_88) (antibody, V domains shown) VH: EVQLLESGGGLVQPGGSLRLSCAASGFTFSNYAMAWVRQAPGKGLEWVSLIYSGDDSTYYADFVKGRFTISRHNSKNTLSLQMNSLRAEDTAIYYCVKDRGTGWSSIVHWGQGTLVTVSS VL: DIQMTQSPSTLSASVGDRVTITCRASQTISNWLAWYQQKPGKAPKLLIYQASSLESGVPSRFSGSGSGTEFTLTISSLQPDDFATYYCQQYSTYWTFGQGTKVEIK | no binding (tested: 10 µg/ml) |  | 
11 | Z031 (BRA112_46) (antibody, V domains shown) VH: EVQLLESGGGLVQPGGSLRLSCVASGFTFGSYGMAWVRQAPGKGLEWISSISSIDPSTYYADSVKGRFTVSRDNSENTLYLHMSSLKVEDTAVYFCAKDRLNGGFGELFASWGQGTLVTVSS VL: DIQMTQSPSTLSASVGDSVTITCRASQSISSWLAWYQQKPGKAPKFLIHKASSLESGIPSRFSGSGSGTEFTLTINNLQPDDFATYYCQHYHSYPWTFGQGTKVEIK | no binding (tested: 10 µg/ml) |  | 
12 | Z035 (BRA112_71) (antibody, V domains shown) VH: EVQLLESGGGLIQPGGSLRLSCAASGFTFSSYAMSWVRQAPGKGLEWVSGISGSGGASDNGASRYYADSVKGRFSISRDNSKNTVYLQMNSLRAEDTAVYYCAKDRLSGGFGELFQKWGQGTLVTVSS VL: DIQMTQSPSTLAASVGDRVTITCRASQNINSWLAWYQQKPGKAPKFLIYKASTLESGAPSRFSGSGSGTEFTLTISSLQPDDFATYYCQHYYSYPYTFGQGTKVEIK | no binding (tested: 10 µg/ml) |  | 
13 | Z038 (BRA12_2) (antibody, V domains shown, also called BRA12_02) VH: EVQLLESGGGLVQPGGSLRLSCEASGFTFSNYAMNWVRQAPGKGLEWVSTLGATDNSGDSTYYVESAKGRFTISRDNSKNTLYLQMNSLRVEDTAVYFCAKDRTGNIGAGTGYFDKWGQGTLVTVSS VL: DIQMTQSPSTLSASVGDRVTITCRASHRISGWLAWYQQKPGKAPKLLIYQASGLESGVPSRFSGSGYGTEFTLTISSLQADDFATYYCQQYNNYPWTFGQGTKVEIK | no binding (tested: 10 µg/ml) |  | 
